Source: patent publication US20140038267A1 (ALLELE BIOTECHNOLOGY AND PHARMACEUTICALS, published 2014)

Biological target: the molecule itself
Assay: oligomeric state by size exclusion chromatography (self-association)
Excerpt: FIG. 1. Size exclusion chromatography of LanYFP (tetramer), dLanYFP (dimer), and mNeonGreen (monomer). The exemplary proteins were detected with 480 nm excitation and 530 nm emission, compared to mCherry (monomer) detected with 540 nm excitation and 620 nm emission. Each exemplary fluorescent protein was run simultaneously with mCherry as a size standard with detection at both wavelengths; mCherry consistently eluted with the same peak shape and retention time. Curves are normalized to peak fluorescence.
Purified and dialyzed fluorescent protein samples were diluted into 50 mM Tris-HCl pH 7.5, 100 mM NaCl and filtered through 0.2 μm filters immediately prior to injection into a Shimadzu Nexera UHPLC equipped with a Waters BEH200 1.7 μm 4.6×150 mm size exclusion column and 4.6×30 mm guard column. Samples were run in the same buffer at a flow rate of 0.3 ml per minute for a total run time of 20 minutes. Fluorescence of the eluted protein was detected with an RF-20Axs fluorescence detector (Shimadzu) with 480 nm and 540 nm excitation and 530 nm and 620 nm emission wavelengths. Each LanYFP or variant sample was co-injected with mCherry, which had been purified under identical conditions and which served as a monomeric size standard.

B1: monomeric NeonGreen (mNeonGreen) (other)
chain: MVSKGEEDNMASLPATHELHIFGSINGVDFDMVGQGTGNPNDGYEELNLKSTKGDLQFSPWILVPHIGYGFHQYLPYPDGMSPFQAAMVDGSGYQVHRTMQFEDGASLTVNYRYTYEGSHIKGEAQVKGTGFPADGPVMTNSLTAADWCRSKKTYPNDKTIISTFKWSYTTGNGKRYRSTARTTYTFAKPMAANYLKNQPMYVFRKTELKHSKTELNFKEWQKAFTDVMGMDELYK
notes: not shown: N-terminal 6xHis tag and linker encoded by vector pNCS
Question: Does B1 bind?
Answer: Result: no binding
